Experimental data reported in paper PMC11860134, “PET Imaging of CD206 Macrophages in Bleomycin-Induced Lung Injury Mouse Model” (Pharmaceutics, 2025).

Columns and labels:
[1] = biological target: T1, murine CD206 (Recombinant mouse MMR/CD206 protein) (Mus musculus, UniProt Q61830); assay: CD206 plate binding assay; details: 1 µg CD206 per well, 2 µg (0.1 µCi) tracer, n = 10
T1 construct: purchased R&D Systems
T1 sequence (Q61830 19-1388 limits assumed): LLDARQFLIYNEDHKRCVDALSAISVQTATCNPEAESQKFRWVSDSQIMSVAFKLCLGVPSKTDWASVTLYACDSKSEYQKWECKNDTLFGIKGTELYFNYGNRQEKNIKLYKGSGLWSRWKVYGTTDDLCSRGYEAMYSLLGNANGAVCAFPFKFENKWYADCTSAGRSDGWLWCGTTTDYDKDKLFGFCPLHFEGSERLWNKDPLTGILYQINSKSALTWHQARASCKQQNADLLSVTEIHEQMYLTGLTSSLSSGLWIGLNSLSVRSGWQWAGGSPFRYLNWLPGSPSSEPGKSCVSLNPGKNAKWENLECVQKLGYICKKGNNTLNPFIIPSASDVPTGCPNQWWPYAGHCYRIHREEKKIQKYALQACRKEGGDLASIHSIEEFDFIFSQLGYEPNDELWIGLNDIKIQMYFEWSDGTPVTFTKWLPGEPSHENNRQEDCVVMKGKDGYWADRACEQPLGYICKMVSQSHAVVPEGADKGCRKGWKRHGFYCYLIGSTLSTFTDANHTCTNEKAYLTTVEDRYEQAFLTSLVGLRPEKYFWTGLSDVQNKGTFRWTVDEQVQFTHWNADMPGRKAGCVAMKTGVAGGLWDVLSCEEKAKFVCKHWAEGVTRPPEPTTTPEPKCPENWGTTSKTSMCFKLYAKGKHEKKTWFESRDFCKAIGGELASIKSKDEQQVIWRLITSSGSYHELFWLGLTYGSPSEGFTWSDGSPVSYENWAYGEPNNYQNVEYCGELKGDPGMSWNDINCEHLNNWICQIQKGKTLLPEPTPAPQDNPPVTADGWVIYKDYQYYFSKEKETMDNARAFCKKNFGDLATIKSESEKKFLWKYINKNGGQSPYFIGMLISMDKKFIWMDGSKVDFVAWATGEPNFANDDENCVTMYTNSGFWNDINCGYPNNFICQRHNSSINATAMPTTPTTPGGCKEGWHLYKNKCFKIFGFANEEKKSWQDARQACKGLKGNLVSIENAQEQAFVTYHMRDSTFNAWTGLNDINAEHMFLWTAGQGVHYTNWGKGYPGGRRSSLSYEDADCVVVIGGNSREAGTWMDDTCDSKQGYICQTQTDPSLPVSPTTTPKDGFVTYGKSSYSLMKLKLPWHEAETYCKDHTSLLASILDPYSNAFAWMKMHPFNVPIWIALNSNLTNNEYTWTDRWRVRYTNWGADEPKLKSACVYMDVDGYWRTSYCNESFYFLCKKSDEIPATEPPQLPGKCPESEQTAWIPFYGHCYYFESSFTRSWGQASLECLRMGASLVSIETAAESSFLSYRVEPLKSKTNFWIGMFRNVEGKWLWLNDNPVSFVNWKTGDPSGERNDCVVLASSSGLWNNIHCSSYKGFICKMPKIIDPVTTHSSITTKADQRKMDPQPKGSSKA
Procedure: The affinity of linear and cyclic RP832c to murine CD206 (Recombinant mouse MMR/CD206 protein, R&D Systems, Minneapolis, MN, USA) protein was tested via plate binding study using blocking and non-blocking groups. 48 h before the experiment 1 µg of CD206 (in 0.1 mL 15 mM Na2CO3, 35 mM NaHCO3) was added to each well of 96-well flat bottom plate. The plate was kept at 4 °C for 48 h. On the day of the study, 5 µg (0.1 mL aqueous solution) of linear or cyclic RP832c was added to each well (n = 10) of each blocking group and was incubated at 37 °C for an hour. Then, 2 µg (0.1 µCi) of [^68Ga]RP832c was added to each well (n = 10 for each group) of both blocking and non-blocking groups. Both groups were incubated at 37 °C for an hour. Wells were rinsed with PBS (pH = 7) three times. Three wells were used as standards. Each well of the blocking and non-blocking groups and the standards were measured via the HIDEX gamma counter (Lablogic, Clair-Mel City, FL, USA). Data were decay corrected, and binding (%) values were calculated according to standards.

[2] = system: collagen I and III fibers; assay: Picro Sirius Red (PSR) staining of lung sections, ImageJ quantification; format: in vivo, mouse; details: lungs of BLM cohort given the tracer
Procedure: Following PET/CT imaging, lungs from all cohorts (bleomycin-induced lung injury model administered with linear or cyclic [^68Ga]Ga-RP832c, healthy mice administered with linear or cyclic [^68Ga]Ga-RP832c, and mice not administered bleomycin) were collected and fixed in 10% formalin. After 48 h of fixation, the lungs were transferred to 70% ethanol and after an additional 24 h, samples were sent for preparation of tissue sections. Tissue sections were prepared by the UAB Pathology Core Research Laboratory, Birmingham, AL, USA. Subsequently, tissue sections were stained with CD206 (Mouse MMR/CD206 Antibody (20 µg/mL, Cat: AF2535, R&D, Minneapolis, MN, USA). The secondary antibody was the Rabbit anti-goat IgG (H+L) HRP (1:2000 dilution, Cat no: 81-1620, Invitrogen, Waltham MA, USA). Picro Sirius Red Staining was conducted using a commercial kit (Picro Sirius Red Stain Kit, ab150681, Abcam, Waltham, MA, USA). Collagen was stained in red while muscle fibers and cytoplasm were stained in yellow.
Picro Sirius Red staining was carried out to detect collagens due to pulmonary fibrosis. The kit is intended for use in the histological visualization of collagen I and III fibers. Picro Sirius Red solution was applied to completely cover the tissue section and then the sample was incubated for 60 min. Slides were rinsed twice in acetic acid solution (0.5%). Slides were rinsed in absolute alcohol and dehydrated in 2 changes in absolute alcohol. The mounting media used was Permount™ Mounting Medium, Pittsburgh, PA, USA. CD206-, PSR-, and H&E-stained samples were imaged using EVOS™ M7000 Imaging System (Invitrogen, Waltham, MA, USA). For IHC semi-quantification, all slides were scored under a light microscope according to the degree of staining (0 points negative for staining, 1 point light yellow, 2 points light brown, and 3 points dark brown) and the range of positivity (1 points 0 to 25%, 2 points 26 to 50%, 3 points 51 to 75%, and 4 points 76 to 100%), and the final scores were summed for analysis.

With RWKFGGFKWR [cyclic [^68Ga]Ga-RP832c] the “CD206 plate binding %” value ([1]; blocking: 5 µg linear or cyclic RP832c, 37 °C 1 h before tracer) was 10.36 ± 0.44%, the “CD206 plate binding %” value ([1]; non-blocking, 37 °C 1 h, gamma counter) was 37.60 ± 1.40% and the “area % values for PSR staining (ImageJ)” value ([2]; 1 week post bleomycin instillation) was 0.86 ± 0.44%. For the same sequence, the “area % values for PSR staining (ImageJ)” value ([2]; 2 weeks post bleomycin instillation) was 1.28 ± 1.06% and the “area % values for PSR staining (ImageJ)” value ([2]; 3 weeks post bleomycin instillation) was 1.36 ± 0.75%.
